Measured values reported in paper PMC11601812.

Legend:
[1] = target: progesterone receptor isoform A (PR-A), full-length, Strep II tagged (human) (UniProt P06401); experiment: SEC-MALS; R5020-bound PR-A, SRC3 and p300 mixed with PRE DNA; Superose 6 Increase; 20 mM Hepes, 50 mM NaCl, 5% glycerol, 1 mM TCEP, with or without 1 M urea, pH 7.5
[2] = target: steroid receptor coactivator 3 (SRC3), full-length, Strep II tagged (human) (UniProt Q9Y6Q9); experiment: as above
Chain of steroid receptor coactivator 3 (SRC3), full-length, Strep II tagged (human) (Q9Y6Q9 whole entry): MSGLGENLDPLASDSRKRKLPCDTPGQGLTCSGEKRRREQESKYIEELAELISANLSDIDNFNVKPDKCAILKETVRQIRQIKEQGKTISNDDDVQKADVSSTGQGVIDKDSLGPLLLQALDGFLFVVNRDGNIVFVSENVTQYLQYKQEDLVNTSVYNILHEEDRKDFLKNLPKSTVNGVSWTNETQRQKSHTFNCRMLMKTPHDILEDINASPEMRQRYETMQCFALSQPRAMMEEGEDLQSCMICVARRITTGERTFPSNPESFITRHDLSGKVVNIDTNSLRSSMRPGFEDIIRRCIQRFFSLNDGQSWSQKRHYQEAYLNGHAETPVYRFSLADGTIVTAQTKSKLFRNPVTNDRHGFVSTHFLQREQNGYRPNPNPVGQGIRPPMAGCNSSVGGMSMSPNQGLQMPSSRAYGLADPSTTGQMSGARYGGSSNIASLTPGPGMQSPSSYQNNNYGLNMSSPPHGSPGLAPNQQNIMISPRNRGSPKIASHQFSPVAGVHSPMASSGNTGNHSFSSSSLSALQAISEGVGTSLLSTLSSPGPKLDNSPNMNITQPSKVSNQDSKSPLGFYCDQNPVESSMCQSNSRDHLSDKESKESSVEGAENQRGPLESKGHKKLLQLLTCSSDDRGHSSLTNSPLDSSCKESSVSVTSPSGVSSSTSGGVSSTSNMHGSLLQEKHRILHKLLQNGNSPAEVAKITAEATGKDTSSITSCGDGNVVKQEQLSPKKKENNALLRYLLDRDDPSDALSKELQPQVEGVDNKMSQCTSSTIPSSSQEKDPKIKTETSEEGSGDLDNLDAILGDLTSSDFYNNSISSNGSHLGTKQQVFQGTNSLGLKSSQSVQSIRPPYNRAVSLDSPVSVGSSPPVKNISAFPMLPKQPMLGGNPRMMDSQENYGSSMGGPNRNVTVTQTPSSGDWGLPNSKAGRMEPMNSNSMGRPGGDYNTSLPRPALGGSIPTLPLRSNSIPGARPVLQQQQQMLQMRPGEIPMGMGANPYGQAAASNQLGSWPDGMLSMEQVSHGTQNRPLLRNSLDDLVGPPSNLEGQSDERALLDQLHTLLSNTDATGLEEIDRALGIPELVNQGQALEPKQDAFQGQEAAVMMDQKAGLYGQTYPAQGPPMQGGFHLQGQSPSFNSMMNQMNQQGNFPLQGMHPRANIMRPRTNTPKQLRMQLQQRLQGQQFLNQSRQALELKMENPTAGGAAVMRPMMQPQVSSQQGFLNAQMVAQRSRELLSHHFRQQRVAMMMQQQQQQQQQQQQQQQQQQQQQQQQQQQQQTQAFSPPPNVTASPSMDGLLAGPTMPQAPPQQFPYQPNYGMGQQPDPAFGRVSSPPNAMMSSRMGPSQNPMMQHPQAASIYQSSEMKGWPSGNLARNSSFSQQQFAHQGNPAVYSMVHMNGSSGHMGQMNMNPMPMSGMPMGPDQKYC

Chain of progesterone receptor isoform A (PR-A), full-length, Strep II tagged (human) (P06401 165-933): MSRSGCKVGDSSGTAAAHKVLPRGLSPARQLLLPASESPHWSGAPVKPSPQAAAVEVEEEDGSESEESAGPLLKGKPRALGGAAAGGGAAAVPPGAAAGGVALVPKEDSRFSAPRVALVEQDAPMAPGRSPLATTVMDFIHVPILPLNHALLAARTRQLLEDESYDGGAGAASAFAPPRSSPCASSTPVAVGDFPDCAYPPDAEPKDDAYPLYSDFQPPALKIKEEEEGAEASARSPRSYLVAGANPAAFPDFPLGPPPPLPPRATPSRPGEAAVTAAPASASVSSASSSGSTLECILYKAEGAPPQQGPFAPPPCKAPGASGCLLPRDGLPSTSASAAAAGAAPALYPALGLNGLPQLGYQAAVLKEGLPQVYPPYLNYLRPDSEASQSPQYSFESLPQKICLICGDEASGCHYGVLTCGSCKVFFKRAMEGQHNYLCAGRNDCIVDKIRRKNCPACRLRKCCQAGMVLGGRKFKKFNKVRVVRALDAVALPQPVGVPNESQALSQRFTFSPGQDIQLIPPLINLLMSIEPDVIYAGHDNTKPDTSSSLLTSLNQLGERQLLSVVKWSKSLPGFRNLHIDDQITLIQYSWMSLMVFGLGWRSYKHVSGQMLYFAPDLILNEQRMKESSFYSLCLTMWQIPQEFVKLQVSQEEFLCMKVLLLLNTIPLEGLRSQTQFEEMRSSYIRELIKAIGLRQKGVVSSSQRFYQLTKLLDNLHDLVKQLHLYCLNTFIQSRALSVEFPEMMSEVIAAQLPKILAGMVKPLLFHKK

stoichiometry N [1]: 0.5 | stoichiometry N [2]: 1
Substance: histone acetyltransferase p300, full-length, Strep II tagged, Q09472 1-2414
